In patent US20250332261A1 one finds % internalized/100000 cells (% internalized/100000 cells) data, which are given here for one substance.

This assay addresses human epidermal growth factor receptor 1 (EGFR1) (human) (UniProt P00533). Put plainly: tritium-labelled compound 5 µg/ml, 3 h +37 °C, FaDu cells, scintillation counting of lysate; internalized plus surface-bound; mean of three ± S.D.; negative control.

For “Control-mAb (omalizumab, anti-IgE) (antibody)”, the % internalized/100000 cells (% internalized/100000 cells) is 0.01.
